The source of these data is patent US20220048996A1 (F STAR BETA, published 2022).

The target in assay [1] is T1, human CD137 expressed on DO11.10 cells (DO11.10-hCD137) (human, UniProt Q07011 24-255).
T1 construct: also called CD137 on human T cells
Put plainly: flow cytometry on DO11.10 cells expressing the target, mean ± SD of three experiments. The procedure: (§1) 50 μl of the antibody dilutions were added to the wells containing cells (final volume 100 μl) and incubated at 4° C. for 1 hour. […] The plates were washed and resuspended in 100 μl of PBS containing DAPI (Biotium, cat no 40043) at 1 μg/ml. The plates were analysed using a Canto II flow cytometer (BD Bioscience) and the data analysed using FlowJo. Dead cells were identified by their higher fluorescence on the UV (405 nm/450/50) channel and excluded from analysis. […] The GMFI data was fit using log (agonist) vs response (three parameters) in Graph Pad Prism Software to generate EC₅₀ values.
(§2) However, in this experiment, instead of using HEK cells to analyse the non-specific binding, non-transduced DO11.10 cells were used. […] The experiment was repeated three times to increase the reliability of the EC₅₀ values calculated.

In assay [2] the target is T2, cynomolgus CD137 expressed on DO11.10 cells (DO11.10-cCD137) (cynomolgus monkey, UniProt Q07011 24-255 (human entry)).
T2 chain: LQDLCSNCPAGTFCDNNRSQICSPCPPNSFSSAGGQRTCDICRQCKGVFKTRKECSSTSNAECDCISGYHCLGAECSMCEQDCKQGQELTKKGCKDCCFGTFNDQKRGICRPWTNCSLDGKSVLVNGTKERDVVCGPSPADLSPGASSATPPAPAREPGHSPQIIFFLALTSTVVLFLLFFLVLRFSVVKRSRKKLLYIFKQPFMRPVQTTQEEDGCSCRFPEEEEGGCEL
The assay is described as above. The procedure:
as §1, §2

Assay [3] has as its target T3, human OX40 expressed on DO11.10 cells (DO11.10-hOX40) (human, UniProt P43489 29-277).
T3 construct: Also used here for OX40 on primary human T cells in the functional rows; also called human OX40 receptor; OX40 on human T cells
T3 sequence: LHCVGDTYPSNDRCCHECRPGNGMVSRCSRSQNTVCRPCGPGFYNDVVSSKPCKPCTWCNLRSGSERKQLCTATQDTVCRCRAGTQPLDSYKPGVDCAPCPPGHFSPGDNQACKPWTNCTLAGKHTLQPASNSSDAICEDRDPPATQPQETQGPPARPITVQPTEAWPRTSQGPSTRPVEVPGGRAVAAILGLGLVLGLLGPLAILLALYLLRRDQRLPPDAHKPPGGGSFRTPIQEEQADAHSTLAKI
Put plainly: flow cytometry on DO11.10 cells expressing the target, three experiments. The procedure:
as §1, §2
For orientation: In flow cytometry, cells or beads pass a laser one at a time.

Assay [4] concerns the target T4, cynomolgus OX40 expressed on DO11.10 cells (DO11.10-cOX40) (cynomolgus, UniProt P43489 29-277 (human entry)).
T4 chain: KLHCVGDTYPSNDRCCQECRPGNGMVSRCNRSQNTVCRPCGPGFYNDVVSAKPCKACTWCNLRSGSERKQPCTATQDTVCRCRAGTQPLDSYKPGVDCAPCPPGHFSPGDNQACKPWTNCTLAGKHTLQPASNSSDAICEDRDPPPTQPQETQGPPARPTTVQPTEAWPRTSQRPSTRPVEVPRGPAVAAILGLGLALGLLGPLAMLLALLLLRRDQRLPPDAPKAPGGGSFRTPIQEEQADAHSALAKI
Described as above. As to the method: as §1, §2

For a further assay, the target named is T5, cOX40-mFc (cynomolgus).
T5 construct: Dimeric; also called cyno OX40-mFc
T5 chain: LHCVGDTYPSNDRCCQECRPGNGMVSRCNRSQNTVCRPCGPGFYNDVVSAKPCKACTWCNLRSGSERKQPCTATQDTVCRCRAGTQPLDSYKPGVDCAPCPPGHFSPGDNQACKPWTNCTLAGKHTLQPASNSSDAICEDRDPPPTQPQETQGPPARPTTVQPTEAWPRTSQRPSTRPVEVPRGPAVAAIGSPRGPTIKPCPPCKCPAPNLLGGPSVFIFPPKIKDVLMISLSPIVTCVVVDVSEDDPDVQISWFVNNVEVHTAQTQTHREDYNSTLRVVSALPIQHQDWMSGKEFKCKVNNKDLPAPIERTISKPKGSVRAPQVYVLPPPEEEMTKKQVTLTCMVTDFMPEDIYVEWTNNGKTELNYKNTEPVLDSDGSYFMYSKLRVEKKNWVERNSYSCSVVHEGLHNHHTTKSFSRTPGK
Put plainly: SPR, antibody captured via anti-human Fab, antigen flowed.

A further assay deals with T6, hOX40-mFc (human).
T6 construct: Dimeric; also called human OX40-mFc
T6 chain: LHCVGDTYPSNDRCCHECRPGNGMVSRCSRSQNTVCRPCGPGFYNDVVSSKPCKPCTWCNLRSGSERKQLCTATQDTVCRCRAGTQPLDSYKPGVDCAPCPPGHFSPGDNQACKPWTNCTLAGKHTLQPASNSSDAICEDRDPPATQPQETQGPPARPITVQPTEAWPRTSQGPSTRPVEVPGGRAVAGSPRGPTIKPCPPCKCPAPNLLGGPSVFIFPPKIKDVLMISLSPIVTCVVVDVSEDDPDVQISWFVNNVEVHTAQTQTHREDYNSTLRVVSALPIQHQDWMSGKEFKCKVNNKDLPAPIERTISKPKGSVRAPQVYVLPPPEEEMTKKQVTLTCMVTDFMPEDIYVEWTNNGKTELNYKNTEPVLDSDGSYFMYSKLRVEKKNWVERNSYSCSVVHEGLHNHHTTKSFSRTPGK
The description is as above.

For assay [5], the target named is T3, human OX40 expressed on DO11.10 cells …. Put plainly: flow cytometry on DO11.10 cells expressing the target.
Assay [6] addresses T4, cynomolgus OX40 expressed on DO11.10 …. Described as above.

B1: G1/FS30-10-16 (antibody, IgG1, V domains shown)
VH: EVQLLESGGGLVQPGGSLRLSCAASGFTFSSYDMSWVRQAPGKGLEWVSDIDPTGSKTDYADSVKGRFTISRDNSKNTLYLQMNSLRAEDTAVYYCARDLLVYGFDYWGQGTLVTVSS
VL: EIVLTQSPGTLSLSPGERATLSCRASQSVSSSYLAWYQQKPGQAPRLLIYGASSRATGIPDRFSGSGSGTDFTLTISRLEPEDFAVYYCQQSYSYPVTFGQGTKVEIKR
notes: IgG1 format; also called CD137 Fab (in IgG1 format; FS30-010-016)
Usually EC50 stands for the concentration that produces a half-maximal response. As for B1, the concentration giving a half-maximal response (EC50) turned out to be 0.1 nM in assay [1] and 0.09 nM in assay [2]. The binding result in assay [3] and in assay [4] was “no binding” throughout.

B2: G1/MOR7480.1 (antibody, human IgG1, lambda)
heavy: not shown
light: SYELTQPPSVSVSPGQTASITCSGDNIGDQYAHWYQQKPGQSPVLVIYQDKNRPSGIPERFSGSNSGNTATLTISGTQAMDEADYYCATYTGFGSLAVFGGGTKLTVLGQPKAAPSVTLFPPSSEELQANKATLVCLISDFYPGAVTVAWKADSSPVKAGVETTTPSKQSNNKYAASSYLSLTPEQWKSHRSYSCQVTHEGSTVEKTVAPTECS
notes: also called G1/M0R7480.1
B2: the binding result with cOX40-mFc is “no binding (tested: 200 nM)”; with hOX40-mFc, “no binding (tested: 200 nM)”; in assay [5] it was “no binding”; in assay [6], “no binding”.
